From patent US20090081234A1 (published 2009)

Target: recombinant human TNFα (human, UniProt P01375 77-233)
Experiment: cell-based or functional assay

Chain of recombinant human TNFα (P01375 77-233 limits assumed): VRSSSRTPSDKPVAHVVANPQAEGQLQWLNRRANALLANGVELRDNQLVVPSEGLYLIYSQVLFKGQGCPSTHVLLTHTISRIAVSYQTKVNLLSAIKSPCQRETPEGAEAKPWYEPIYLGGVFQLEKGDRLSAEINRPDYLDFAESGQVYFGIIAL

B1: TNV196 (antibody, V domains shown)
VH: QVQLVESGGGVVQPGRSLRLSCAASGFTFSSYAMHWVRQAPGKGLEWVAFISYDGSNKKSADSVKGRFTVSRDNSKNTLFLQMNSLRAEDTAVFYCARDRGIGAGGNYYYYGMDVWGQGTTVTVSS
VL: EIVLTQSPATLSLSPGERATLSCRASQSVYSYLAWYQQKPGQAPRLLIYDASNRATGIPARFSGSGSGTDFTLTISSLEPEDFAVYYCQQRSNWPPFTFGPGTKVDIK
Q: For B1, which “neutralizing TNFα bioactivity” value is on record?
A: 4 fold
